What was measured:
[1] = test system: hES cell derived neural progenitors; test: Directed differentiation of neural progenitors towards a midbrain fate; scoring of TH+ clumps and TH+ neurons; assay type: cell-based, human; conditions: for effect on the proportion of TH+ clumps: added at 10 ng/ml to IBMX, Forskolin, PMA, dopamine and AA
Excerpt: Neurospheres that were generated from noggin treated ES cell colonies as described above (Example 1) were propagated 21-35 days in NPM supplemented with FGF-2 and EGF. At this point the spheres were chopped into small clumps (2000-3000 cells per clump). FGF-2 and EGF were removed from the medium and the progenitors were directed to take a midbrain fate by treatment with various factors for 6-8 days. During treatment with the various factors the clumps were either cultured in suspension or plated on poly-D-lysine and laminin. The factors included. FGF1, FGF8, FGF17 (R&D Systems) at concentrations of 100-200 ng/ml SHH (R&D Systems) at 0.5-1 μg/ml. Other signal transduction inducers: cAMP inducers: IBMX (Sigma, 0.25 mM), forskolin (Sigma 50 μM), PKC inducers PMA (Sigma 200 nM) and dopamine (Sigma 20 μM) were also used. The medium was also supplemented with the survival factors Ascorbic acid (AA) (Sigma) at concentration of 400-800 μM and NT4 (R&D Systems) at concentration of 20 ng/ml. The medium was changed every other day. To induce further differentiation into neurons, the spheres were again disaggregated into small clumps and plated on poly-D-lysine (30-70 kDa. 10 μg/ml, Sigma) and laminin (4 μg/ml, Sigma) and cultured in NPM in the absence of the factors and in the presence of AA with or without NT4 for 5-10 days. Differentiated cells were analysed by indirect immunofluorescence (as described in example 1) for the expression of β-tubulin type III (Sigma, 1:1000-3000) Tyrosine hydroxylase (TH) (Sigma anti mouse monoclonal, 1:250-500 and Pel-Freez anti rabbit polyclonal, 1:50-100) dopamine transporter (DAT;_Chemicon; rabbit polyclobal 1:50-100) and Nurr1 (Santa Cruz, Calif.; rabbit poly clonal 1:100-200). The proportion of clumps of cells that were comprised of a significant number of TH+ cells (>50 cells) was scored. Double immunostaining for TH and β-tubulin type III was used to analyse the percentage of cells within clumps expressing TH from the total number of neurons β-tubulin type III+cells). Multiple confocal microscopy images of consecutive planes through the clump were projected into one image for this analysis (FIG. 14) Ten-fifteen random fields were analysed.

[2] = test system: human ES cells (HES-1 cell line); test: Noggin-directed differentiation of hES cell colonies on feeders; immunophenotype of derived spheres and rosette areas; assay type: cell-based
Method: To derive enriched preparations of neural progenitors, differentiation of human ES cells was directed into neural fate by transfer of undifferentiated hES cell clumps onto fresh feeders and culture in a modified hES cell medium with reduced serum concentration and in the presence of the BMP antagonist noggin. Specifically, human ES cells (HES-1 cell line, Reubinoff et al 2000, PCT/AU99/00990) with a stable normal (46XX) karyotype were cultured on mitomycin C mitotically inactivated mouse embryonic fibroblast feeder layer in gelatine coated tissue culture dishes as previously described (Reubinoff et al., 2000 PCT/AU99/00990 and PCT/AU01/00278). To induce differentiation, at the usual passage, clumps of undifferentiated ES cells were plated on fresh feeders and cultured in the usual hES medium supplemented with 10% serum (instead of 20%) and 500 ng/ml of noggin (R&D systems). Noggin (500 ng/ml) was further added to the medium every other day throughout a 6-8 day culture period (3-4 administrations). After 6-8 days, noggin was omitted and the cells were further cultured in the modified medium with 10% serum for additional 4-6 days. At this time about 12-14 days, about 70% of the colonies differentiated mostly into areas that were comprised of tightly packed small cells with a uniform grey opaque appearance under dark field stereo microscope (FIG. 1a, PCT/AU01/00278, PCT/AU01/00735). Other colonies differentiated into areas with structures that could resemble primitive neural rosettes (FIG. 1b).
Clumps of about 150 cells were mechanically isolated by using the razor-sharp edge of a micro glass pipette or a razor blade from the grey opaque areas and replated in serum-free medium supplemented with human recombinant FGF-2 and EGF. Specifically, the clusters of cells were transferred to plastic tissue culture dishes containing neural progenitors growth medium (NPM) that consisted of DMEM/F12 (1:1), B27 supplementation (1:50), glutamine 2 mM, penicillin 50 u/ml and streptomycin 50 μg/ml (Gibco), and supplemented with 20 ng/ml human recombinant epidermal growth factor (EGF), and 20 ng/ml fibroblast growth factor 2 (FGF2) (R & D Systems, Inc., Minneapolis, Minn.). Under these culture conditions the clumps formed free floating spherical structures within 24 hours and sequential propagation and expansion of the sphere cultures was possible as previously described (Reubinoff at al., 2001, PCT/AU01/00278) for prolonged periods (6 months).
During the initial weeks in culture, the spheres gradually acquired a uniform morphology (FIG. 3 A,B). A detailed analysis of marker expression by the cell within the spheres was conducted at 3-4, 8 and 12 weeks after derivation. The spheres were disaggregated into single cells that were plated, fixed and analysed by fluorescent immunohistochemistry for the expression of the early neural markers N-CAM, A2B5, PSA-NCAM and nestin. A high proportion of the cells expressed these markers (N-CAM 83±4% A2B5 84±4%, nestin 69±6% PSA-NCAM 74±2%) and the level of expression was stable during the 12 weeks period.
The phenotype of cells within the areas with structures that could resemble primitive neural rosettes (FIG. 1b) was also analyzed. These areas were mechanically dissected, and disaggregated. The cells were plated on laminin and cultured in NPM for two days.
(§1) In general, for the immunophenotyping of disaggregated neural progenitor cells and differentiated neurons, fixation with 4% paraformaldehyde for 20 minutes at room temperature was used unless otherwise specified. It was followed by blocking with 5% heat inactivated goat serum (Dako) and permeabilization with 0.2% Triton X (Sigma) in PBS with 0.1% BSA for 30 minutes. Samples were incubated with the primary antibodies at room temperature for one hour. […]

[3] = test system: undifferentiated human ES cell clumps; test: hES cell clumps cultured in suspension in NPM+FGF2 with or without noggin; indirect immunofluorescence for neural and non-neural markers; assay type: cell-based; conditions: for proportion of cells expressing endodermal and mesodermal markers: noggin 350 and 700 ng/ml versus no noggin, then a week of differentiation
Method: In an alternative approach, undifferentiated human ES cell clumps of about 200 cells were transferred into NPM and cultured in suspension in the presence of noggin (350 and 700 ng/ml) for approximately 3 weeks. To further induce neural differentiation, proliferation and prevent the differentiation of neural progenitors the medium was also supplemented with human recombinant FGF-2 (20 ng/ml). LIF (10 ng/ml) was also included in the medium in early experiments. The media was replaced twice a week. Under these culture conditions the clumps of hES cells turned into round spheres within 7 days (FIG. 3 C,D).
To evaluate the effect of these culture conditions, we have evaluated the phenotype of cells within clumps following three weeks of culture. We have examined two concentrations of noggin (350 and 700 ng/ml) in comparison to culture in NPM supplemented with FGF2 in the absence of noggin. The clusters were disaggregated into single cells or small clumps that were plated, cultured for 4 hours on laminin, fixed and analysed by indirect immunofluorescence for the expression of the early neural markers nestin, A2B5 and N-CAM. Markers of endoderm (probably extraembryonic; low molecular weight (LMW) cytokeratin and laminin) and mesoderm (muscle specific actin and desmin) were examined after a week of differentiation. Immunofluorescence methods and source of antibodies are described below in section (C).
To analyse and differentiate between the effect of NPM supplemented with FGF2 and noggin on the differentiation of the hES cell clusters we have characterized and compared the differentiation of these clusters following culture in three different media (FIG. 5): (a) NPM supplemented with b-FGF and noggin (700 ng/ml), (b) the same medium without noggin and (c) knockout (KO) medium. After three weeks of culture a significant difference in the morphology of the clusters was observed. Clusters that were cultured in KO medium had the typical morphology of embryoid bodies (EBs, FIG. 5c). Clusters that were cultured in NPM and FGF2 were characterized by cystic structures and areas of dense cells resembling neural spheres (FIG. 5b). Clusters that were cultured in the presence of noggin had the typical morphology of neural spheres without cystic structures (FIG. 5a).
Clusters that were cultured in NPM with (FIG. 5a) or without noggin (FIG. 5b) were further cultured for an additional 3 weeks in NPM supplemented with FGF2 in the absence of noggin (FIG. 5).
To characterize and compare the phenotype of cells within the clusters following differentiation and propagation at the various culture conditions (FIG. 5), the clusters were disaggregated after 3 weeks in culture into single cells or small clumps that were plated, cultured for 4 hours on laminin, fixed and analysed for the expression of the early neural markers nestin, A2B5, N-CAM, PSA-NCAM and β-tubulin III (FIG. 6). The same analysis was done after additional 3 weeks of culture in NPM supplemented with FGF2 (FIG. 7).
The percentage of cells within the clumps that expressed non-neural markers at 3 weeks (FIG. 8) and 6 weeks (FIG. 9) of the same floating cultures as above was analysed. Indirect immuno fluorescence analysis of the expression of non-neural markers was performed following disaggregation of the clumps and one week of differentiation on laminin.
as §1

[4] = test system: undifferentiated human ES cell clumps; test: RT-PCR of non-neural marker transcripts in noggin treated hES cell clumps; assay type: cell-based
Method: At the RNA level, RT-PCR analysis confirmed that in the noggin treated clumps the expression of the endodermal (probably extraembryonic) marker alpha-fetal protein was reduced/undetectable at 3 weeks. This marker was also undetectable at 6 weeks.
RT-PCR was performed as previously described (Reubinoff et al., 2001). Primer sequences (forward and reverse) and the length of amplified products were as previously described (Reubinoff et al 2001) for alpha-feto-protein and HNF3a and as follows for keratin 8: […]

[5] = spheres derived from noggin treated colonies, 3-4, 8 and 12 weeks after derivation
[6] = three weeks in NPM+FGF2+noggin (700 ng/ml)

## O=C1O[C@H]([C@@H](O)CO)C(O)=C1O [ascorbic acid, reference compound]
[1]; confocal microscopy, cellular level
  percentage of TH+ neurons from the total number of neurons (β-tubulin type III+ cells): 45%
[1]; factors for 6-8 days after removal of FGF-2 and EGF, then differentiation on poly-D-lysine and laminin with AA
  proportion of TH+ clumps (clumps with >50 TH+ cells): 35%

## FGF-1: fibroblast growth factor FGF1 (R&D Systems)
[1]
  effect on the proportion of TH+ clumps: did not increase

B1: FGF-8: fibroblast growth factor FGF8 (R&D Systems) (protein, UniProt P55075 23-233, looked up)
Fibroblast growth factor 8: QEGPGRGPALGRELASLFRAGREPQGVSQQHVREQSLVTDQLSRRLIRTYQLYSRTSGKHVQVLANKRINAMAEDGDPFAKLIVETDTFGSRVRVRGAETGLYICMNKKGKLIAKSNGKGKDCVFTEIVLENNYTALQNAKYEGWYMAFTRKGRPRKGSKTRQHQREVHFMKRLPRGHHTTEQSLRFEFLNYPPFTRSLRGSQRTWAPEPR
[1]
  effect on the proportion of TH+ clumps: did not increase

B2: noggin: BMP antagonist noggin (R&D systems) (protein, UniProt Q13253 28-232, looked up)
Noggin: QHYLHIRPAPSDNLPLVDLIEHPDPIFDPKEKDLNETLLRSLLGGHYDPGFMATSPPEDRPGGGGGAAGGAEDLAELDQLLRQRPSGAMPSEIKGLEFSEGLAQGKKQRLSKKLRRKLQMWLWSQTFCPVLYAWNDLGSRFWPRYVKVGSCFSKRSCSVPEGMVCKPSKSVHLTVLRWRCQRRGGQRCGWIPIQYPIISECKCSC
[2]; areas resembling primitive neural rosettes in noggin treated colonies, two days on laminin in NPM
  cells expressing N-CAM and nestin: 95-100%
[2]; noggin 500 ng/ml every other day for 6-8 days, 10% serum, on feeders, scored at about 12-14 days
  colonies differentiated mostly into areas of tightly packed small cells: about 70%
[2]; [5]
  cells expressing A2B5: 84±4%
  cells expressing N-CAM: 83±4%
  cells expressing PSA-NCAM: 74±2%
  cells expressing nestin: 69±6%
[3]; after additional 3 weeks of culture in NPM+FGF2 (6 weeks)
  cells expressing non-neural markers: undetectable or rare
[3]; noggin 700 ng/ml, three weeks
  percentage of cells expressing nestin and A2B5 versus NPM+FGF2 without noggin: slightly higher
[3]; three weeks
  proportion of cells expressing endodermal and mesodermal markers: significantly reduced after noggin treatment in a dose dependent manner
[3]; three weeks, listed as Noggin
  proportion of cells expressing endodermal and mesodermal markers: reduced in a dose dependent manner
[3]; noggin treated cultures after 3 weeks, one week of differentiation on laminin
  percentage of cells expressing non-neural markers: significant reduction
[3]; [6]
  percentage of cells expressing A2B5: 95.6%
  percentage of cells expressing NCAM: 73%
[3]; three weeks in NPM+FGF2+noggin, then additional 3 weeks in NPM+FGF2
  percentage of cells expressing NCAM: 93%
[4]; 3 weeks
  expression of endodermal marker alpha-fetal protein (RT-PCR): reduced/undetectable
  expression of transcripts of epidermal marker keratin-14 (RT-PCR): significantly reduced
[4]; 6 weeks
  expression of endodermal marker HNF3α (RT-PCR): reduced/undetectable
  expression of endodermal marker alpha-fetal protein (RT-PCR): undetectable
  expression of transcripts of epidermal marker keratin-14 (RT-PCR): undetectable

Source: patent US10760049B2, “Generation of neural stem cells from undifferentiated human embryonic stem cells” (ES Cell International PTE Ltd., priority 2002, dated 2020)
